Assay results reported in patent US5733879A, “Peptides and proteins, process for their preparation and their use as cholesterol acceptors” (N.V. Innogenetics, S.A., priority 1992, dated 1998).
Where no end group is shown, it is not given here.

Experiment: Orientation of helices and acyl chains by polarized ATR infrared spectroscopy
Type: physicochemical
Settings: peptide-DMPC complexes
Method: Attenuated Total Reflection (ATR) infrared spectroscopy was used for the determination of the relative orientation of the apolipoprotein alpha-helical segments and of the phospholipid acyl chains as previously described for apo AI and apo AI-phospholipid complexes and for LDL (Vanloo et at., 1991). For these measurements, a 70 μL solution of 20 μg isolated complex in a 0.005M Tris-HCl buffer pH 8.4, was spread on a ATR Germanium crystal plate. Deuteration of the sample was performed by flushing N2, saturated with D2 O, in a sealed universal Perkin-Elmer sample holder, at room temperature for 3 hours, in order to avoid overlapping of the absorption bands for random and alpha-helical structures.
Spectra were recorded on a Perkin Elmer 1720X infrared spectrophotometer, using polarized incident light with a perpendicular (90°) and parallel (0°) orientation. A dichroic spectrum was obtained by substracting the spectrum recorded with polarized light at 0° from that at 90°. A positive deviation on the dichroic spectrum indicates a dipole preferentially oriented close to a normal to the plane, while a larger absorbance at 0° is indicative of a dipole oriented close to the Ge crystal plane. The angle between a normal to the Ge crystal and the dipole is obtained from the calculation of the dichroic ratio Ratr =A(90°)/A(0°), representing the ratio of the absorbances on the spectra recorded with polarized light at 90° and 0° . For each experiment, up to 15 scans were stored and averaged.
In order to determine the orientation of the alpha-helices with respect to the DMPC bilayer, ATR infrared spectra of DMPC and of the isolated peptide-DMPC complexes were recorded at two orthogonal linear polarizations of the incident light. […] This value is close to that measured for the apo AI-DMPC complex (Vanloo et al.,1991), and higher than that for pure DMPC. For the M1, M2, M3 and M4 peptide-DMPC complexes, the corresponding angles between the peptide and an axis perpendicular to the Ge plane are respectively 25°, 25°, 34° and 31°.

Row | Sequence | angle between the peptide and an axis perpendicular to the Ge plane
1 | EWLKAFYKKVLEKLKELF [M1] | 25 °
2 | EWLKAEYEKVLEKLKELF [M2] | 25 °
3 | EWLEAFYKKVLEKLKELF [M4] | 31 °
4 | EWLKAEYEKVEEKLKELF [M3] | 34 °
